In article PMC3923242, “New function for Escherichia coli xanthosine phophorylase (xapA): genetic and biochemical evidences on its participation in NAD^+ salvage from nicotinamide” (BMC Microbiology, 2014):

Substrate: NC(=O)c1cccnc1
Assay: purified protein
Type: biochemical, Escherichia coli
Settings: 20 mM ribose-1-phosphate, 50 mM MES pH 6.0, 37 °C, 30 min, 0.1 mg/ml xapA, NR synthesis direction

B1: xanthosine phosphorylase (xapA; purine nucleoside phosphorylase II, PNP-II) (Escherichia coli K-12) (protein)
chain: MSQVQFSHNPLFCIDIIKTYKPDFTPRVAFILGSGLGALADQIENAVAISYEKLPGFPVSTVHGHAGELVLGHLQGVPVVCMKGRGHFYEGRGMTIMTDAIRTFKLLGCELLFCTNAAGSLRPEVGAGSLVALKDHINTMPGTPMVGLNDDRFGERFFSLANAYDAEYRALLQKVAKEEGFPLTEGVFVSYPGPNFETAAEIRMMQIIGGDVVGMSVVPEVISARHCDLKVVAVSAITNMAEGLSDVKLSHAQTLAAAELSKQNFINLICGFLRKIA
notes: ORF from E. coli genomic DNA in pET28a (EcoRI/HindIII), expressed in E. coli Rosetta (DE3), Ni-NTA purified (His-tag), tag removal not described
  Km: 5.81 mM
